The values below come from article PMC5035049, “Solution Structure of the Cuz1 AN1 Zinc Finger Domain: An Exposed LDFLP Motif Defines a Subfamily of AN1 Proteins” (PLoS ONE, 2016).

Substitutions are numbered along the chain they refer to.

The experiment concerns the target T1, 12xHis-SUMO-Cdc48 (S. cerevisiae, UniProt P25694 1-835).
T1 construct: Cdc48, multifunctional ATPase, S. cerevisiae, full length; also called 12xHis-Sumo-tagged Cdc48; p97 in higher organisms
The experiment can be described thus: pull-down; GST-tagged Cuz1 species added to 12xHis-Sumo-tagged Cdc48 or to beads alone; bound Cuz1 seen by SDS-PAGE and anti-Cuz1 immunoblot; as previously described in ref. 7. The conditions noted are these: both partners purified.

T1 sequence (P25694 whole entry): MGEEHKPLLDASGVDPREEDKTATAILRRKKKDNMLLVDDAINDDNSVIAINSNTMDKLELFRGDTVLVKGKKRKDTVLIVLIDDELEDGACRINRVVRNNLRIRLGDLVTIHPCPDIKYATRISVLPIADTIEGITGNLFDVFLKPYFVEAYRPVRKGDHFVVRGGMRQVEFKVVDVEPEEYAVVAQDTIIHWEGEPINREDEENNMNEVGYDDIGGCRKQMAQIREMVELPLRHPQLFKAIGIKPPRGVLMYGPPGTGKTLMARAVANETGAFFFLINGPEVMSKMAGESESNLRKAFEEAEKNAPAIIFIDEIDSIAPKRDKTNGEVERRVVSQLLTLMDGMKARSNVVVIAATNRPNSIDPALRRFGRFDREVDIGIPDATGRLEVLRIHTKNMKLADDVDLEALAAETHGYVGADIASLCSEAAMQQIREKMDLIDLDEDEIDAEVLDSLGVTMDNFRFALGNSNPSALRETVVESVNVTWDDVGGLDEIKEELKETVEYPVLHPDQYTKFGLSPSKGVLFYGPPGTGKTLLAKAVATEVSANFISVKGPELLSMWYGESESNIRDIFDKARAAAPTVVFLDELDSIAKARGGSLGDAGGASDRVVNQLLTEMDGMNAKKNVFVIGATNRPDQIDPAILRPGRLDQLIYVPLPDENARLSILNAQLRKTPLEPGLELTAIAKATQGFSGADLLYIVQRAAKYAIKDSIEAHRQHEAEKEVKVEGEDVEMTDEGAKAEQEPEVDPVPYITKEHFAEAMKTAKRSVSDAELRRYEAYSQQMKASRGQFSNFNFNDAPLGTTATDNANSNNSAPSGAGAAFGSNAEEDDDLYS

B1: GST-Cuz1, full length wild type (plasmid pJH150) (natural protein, S. cerevisiae, UniProt P53899 1-274, looked up)
chain: MSAAIEKETGMLDVGKHCAYCRQLDFLPFHCSFCNEDFCSNHRLKEDHHCRWLLEHEEVHKTEKSPSKSRDGSSSNDEAYFKSLLPERASVRIQRVSETREPLRGSNTAKVSSTLNSKTLDKIFKFFQRNEKRKSNNKSKKNFGSSSNKIIQLANLKKIAKGDPKIPMQNRIYIWCYLVDGDETDIAKEDTRMPLYINKMWPVGRAMDYLSIQLNVKSSTLTNSSSNDKFQLCKLKEGKQVSFYNIGASLRVTNEIKDLDTLYLVHNNADEKSN
notes: Cuz1 (systematic name Ynl155w), S. cerevisiae, 274 amino acids, full length; also called Ynl155w; GST-tagged Cuz1
Consider B1, for which the binding result is recorded as “binds”.

B2: GST-Cuz1 LDFL→AAAA, full length (plasmid pJH171) (natural protein, S. cerevisiae, UniProt P53899 1-274, looked up)
chain: B1 chain with L24A, D25A, F26A, L27A
notes: Cuz1 (systematic name Ynl155w), S. cerevisiae, 274 amino acids, full length, with LDFL (L24, D25, F26, L27) changed to AAAA; Made by site-directed mutagenesis of pJH150; also called Cuz1^LDFL→AAAA mutant; Cuz1 LDFL mutant
With B2, the binding result is reported as “binds”.
